Measured values reported in patent publication US10253076B2, “Peptides and combination of peptides for use in immunotherapy against ovarian cancer and other cancers” (immatics biotechnologies GmbH, priority 2015, dated 2019).

Target: HLA-A*02:01 (Homo sapiens, UniProt P04439, D140Y/D185E/D98H/E176V/E277Q/G131W/G231S/I119V/I121R/I166T/I218V/L300P/L318F/N151K/N90K/P208A/P217A/Q86G/Q94H/R138H/R169H/T345S)
Experiment: MHC binding assay (UV-ligand exchange, beta2m ELISA, peptide exchange yield)
Settings: binding of HLA-class I restricted peptides to HLA-A*02:01, ranged by peptide exchange yield (UV-ligand exchange, β2m ELISA)
From the text: Candidate peptides for T cell based therapies according to the present invention were further tested for their MHC binding capacity (affinity). The individual peptide-MHC complexes were produced by UV-ligand exchange, where a UV-sensitive peptide is cleaved upon UV-irradiation, and exchanged with the peptide of interest as analyzed. Only peptide candidates that can effectively bind and stabilize the peptide-receptive MHC molecules prevent dissociation of the MHC complexes. To determine the yield of the exchange reaction, an ELISA was performed based on the detection of the light chain (β2m) of stabilized MHC complexes. The assay was performed as generally described in Rodenko et al. (Rodenko et al., 2006).
96 well MAXISorp plates (NUNC) were coated over night with 2ug/ml streptavidin in PBS at room temperature, washed 4× and blocked for 1 h at 37° C. in 2% BSA containing blocking buffer. […] Peptide-MHC monomers of the UV-exchange reaction were diluted 100 fold in blocking buffer. Samples were incubated for 1 h at 37° C., washed four times, incubated with 2ug/ml HRP conjugated anti-82m for 1 h at 37° C., washed again and detected with TMB solution that is stopped with […]. Absorption was measured at 450 nm. Candidate peptides that show a high exchange yield (preferably higher than 50%, most preferred higher than 75%) are generally preferred for a generation and production of antibodies or fragments thereof, and/or T cell receptors or fragments thereof, as they show sufficient avidity to the MHC molecules and prevent dissociation of the MHC complexes.

Peptide exchange | Substance
″++″ (≥20% = ++) | 405 (ALYDVFLEV; listed as Homo sapiens) [compound 405]
″++″ (≥20% = ++) | 590 (SLIEKLWQT; listed as Homo sapiens) [compound 590]
″++++″ (≥75% = ++++) | 61 (FLQGYQLHL; listed as Homo sapiens) [compound 61]
″++″ (≥20% = ++) | 121 (GVVDPRAISVL; listed as Homo sapiens) [compound 121]
″+++″ (≥50% = +++) | 74 (ALLDPEVLSIFV; listed as Homo sapiens) [compound 74]
″+++″ (≥50% = +++) | 46 (ILTEENIHL; listed as Homo sapiens) [compound 46]
″+++″ (≥50% = +++) | 472 (KLLEVSDDPQV; listed as Homo sapiens) [compound 472]
″++″ (≥20% = ++) | 431 (SLVNVVPKL; listed as Homo sapiens) [compound 431]
″+++″ (≥50% = +++) | 73 (NIFDLQIYV; listed as Homo sapiens) [compound 73]
″+++″ (≥50% = +++) | 519 (GLLHLTLLL; listed as Homo sapiens) [compound 519]
″+++″ (≥50% = +++) | 167 (KVLEVTEEFGV; listed as Homo sapiens) [compound 167]
″+++″ (≥50% = +++) | 493 (GLLGEKTQDLIGV; listed as Homo sapiens) [compound 493]
″+++″ (≥50% = +++) | 30 (LILDWVPYI; listed as Homo sapiens) [compound 30]
″+++″ (≥50% = +++) | 394 (LLAVIGGLVYL; listed as Homo sapiens) [compound 394]
″+++″ (≥50% = +++) | 622 (RLLGEEVVRVLQA; listed as Homo sapiens) [compound 622]
″+++″ (≥50% = +++) | 450 (FMIDASVHPTL; listed as Homo sapiens) [compound 450]
″++″ (≥20% = ++) | 44 (ILDPISSGFLL; listed as Homo sapiens) [compound 44]
″++″ (≥20% = ++) | 15 (VLLTFKIFL; listed as Homo sapiens) [compound 15]
″++″ (≥20% = ++) | 278 (QLLDVVLTI; listed as Homo sapiens) [compound 278]
″++++″ (≥75% = ++++) | 387 (ALFQATAEV; listed as Homo sapiens) [compound 387]
″+++″ (≥50% = +++) | 401 (ILLDDTGLAYI; listed as Homo sapiens) [compound 401]
″+++″ (≥50% = +++) | 27 (ILADIVISA; listed as Homo sapiens) [compound 27]
″+++″ (≥50% = +++) | 369 (GLFPEHLIDV; listed as Homo sapiens) [compound 369]
″+++″ (≥50% = +++) | 364 (LLQNEQFEL; listed as Homo sapiens) [compound 364]

Peptide exchange | Substance
″+++″ (≥50% = +++) | 608 (SLLSVSHAL; listed as Homo sapiens) [compound 608]
″++″ (≥20% = ++) | 354 (LILEGVDTV; listed as Homo sapiens) [compound 354]
″+++″ (≥50% = +++) | 484 (SLIEKVTQL; listed as Homo sapiens) [compound 484]
″+++″ (≥50% = +++) | 365 (YVIDQGETDVYV; listed as Homo sapiens) [compound 365]
″+″ (≥10% = +) | 520 (LAVHPSGVAL; listed as Homo sapiens) [compound 520]
″+++″ (≥50% = +++) | 594 (IMLKGDNITL; listed as Homo sapiens) [compound 594]
″+++″ (≥50% = +++) | 302 (ALLQEGEVYSA; listed as Homo sapiens) [compound 302]
″+++″ (≥50% = +++) | 456 (LLIGHLERV; listed as Homo sapiens) [compound 456]
″+++″ (≥50% = +++) | 577 (VMFEDGVLMRL; listed as Homo sapiens) [compound 577]
″+++″ (≥50% = +++) | 518 (KLNAEVACV; listed as Homo sapiens) [compound 518]
″+++″ (≥50% = +++) | 496 (FLVEKQPPQV; listed as Homo sapiens) [compound 496]
″++++″ (≥75% = ++++) | 347 (SLFKHDPAAWEA; listed as Homo sapiens) [compound 347]
″+++″ (≥50% = +++) | 243 (LLLNELPSV; listed as Homo sapiens) [compound 243]
″+++″ (≥50% = +++) | 515 (LLQELVLFL; listed as Homo sapiens) [compound 515]
″+++″ (≥50% = +++) | 98 (LIIDQADIYL; listed as Homo sapiens) [compound 98]
″+++″ (≥50% = +++) | 446 (QLIPALAKV; listed as Homo sapiens) [compound 446]
″+++″ (≥50% = +++) | 163 (ALDEMGDLLQL; listed as Homo sapiens) [compound 163]
″+++″ (≥50% = +++) | 498 (KLWTGGLDNTV; listed as Homo sapiens) [compound 498]
″+++″ (≥50% = +++) | 5 (HLTEVYPEL; listed as Homo sapiens) [compound 5]
″++″ (≥20% = ++) | 43 (VLSSLEINI; listed as Homo sapiens) [compound 43]
″+++″ (≥50% = +++) | 613 (RLLPPGAVVAV; listed as Homo sapiens) [compound 613]
″+++″ (≥50% = +++) | 272 (ALGNTVPAV; listed as Homo sapiens) [compound 272]
″+++″ (≥50% = +++) | 244 (SLFGGTEITI; listed as Homo sapiens) [compound 244]
″+++″ (≥50% = +++) | 12 (SLWPDPMEV; listed as Homo sapiens) [compound 12]

Peptide exchange | Substance
″++″ (≥20% = ++) | 579 (NLMEMVAQL; listed as Homo sapiens) [compound 579]
″++++″ (≥75% = ++++) | 19 (FMVDNEAIYDI; listed as Homo sapiens) [compound 19]
″++″ (≥20% = ++) | 524 (ALIENLTHQI; listed as Homo sapiens) [compound 524]
″+++″ (≥50% = +++) | 271 (LVYPLELYPA; listed as Homo sapiens) [compound 271]
″++″ (≥20% = ++) | 505 (SLAPGDVVRQV; listed as Homo sapiens) [compound 505]
″++″ (≥20% = ++) | 80 (FLYDNLVESL; listed as Homo sapiens) [compound 80]
″++″ (≥20% = ++) | 146 (SLATAGDGLIEL; listed as Homo sapiens) [compound 146]
″++″ (≥20% = ++) | 453 (KLLEATSAV; listed as Homo sapiens) [compound 453]
″+++″ (≥50% = +++) | 430 (HLYSSIEHLTT; listed as Homo sapiens) [compound 430]
″++″ (≥20% = ++) | 127 (KIGDEPPKV; listed as Homo sapiens) [compound 127]
″+++″ (≥50% = +++) | 507 (KLIDDQDISISL; listed as Homo sapiens) [compound 507]
″+++″ (≥50% = +++) | 575 (YLISQVEGHQV; listed as Homo sapiens) [compound 575]
″+++″ (≥50% = +++) | 341 (SQIALNEKLVNL; listed as Homo sapiens) [compound 341]
″+++″ (≥50% = +++) | 525 (VLLEAGEGLVTI; listed as Homo sapiens) [compound 525]
″++″ (≥20% = ++) | 269 (RVLEVGALQAV; listed as Homo sapiens) [compound 269]
″+++″ (≥50% = +++) | 352 (SLLELLHIYV; listed as Homo sapiens) [compound 352]
″+++″ (≥50% = +++) | 471 (YLYNNMIAKI; listed as Homo sapiens) [compound 471]
″+++″ (≥50% = +++) | 543 (GLLPTPITQQASL; listed as Homo sapiens) [compound 543]
″+++″ (≥50% = +++) | 397 (YLFGERLLEC; listed as Homo sapiens) [compound 397]
″+++″ (≥50% = +++) | 132 (LLVEQPPLAGV; listed as Homo sapiens) [compound 132]
″++″ (≥20% = ++) | 393 (GLLDTQTSQVLTA; listed as Homo sapiens) [compound 393]
″+++″ (≥50% = +++) | 503 (SLNHFTHSV; listed as Homo sapiens) [compound 503]
″+++″ (≥50% = +++) | 254 (TLLAFIMEL; listed as Homo sapiens) [compound 254]
